Measured values from paper PMC9841404, “Werner syndrome protein works as a dimer for unwinding and replication fork regression”.

Columns and labels:
[1] = biological target: T1, f:GFP-WRN (Werner syndrome protein) (Homo sapiens, UniProt Q14191 1-1432); assay: single-molecule TIRF GFP photobleaching; no ATP; dimer preferred, heterogeneous up to 4 steps; 1 nM RPA did not change conclusion; Binding buffer, pH and temperature not in the material; 24 nM GFP-WRN in the forked-DNA unwinding assay (1 nM RPA); NaCl tested at 15, 50 and 150 mM on the replication fork; GFP imaging without oxygen scavenger; conditions: protein: recombinant; tags: N-terminal FLAG and GFP; chain copies: 2; label: Cy3 and Cy5 in the single-stranded overhangs; 5' biotin on bottom strand; fork 1:2, 3' ssDNA arm on top and 5' ssDNA arm on bottom
[2] = biological target: T1, f:GFP-WRN (Werner syndrome protein); assay: single-molecule TIRF GFP photobleaching; 1 mM ATP-Mg2+, 2 min; active molecules dimeric; Binding buffer, pH and temperature not in the material; 24 nM GFP-WRN in the forked-DNA unwinding assay (1 nM RPA); NaCl tested at 15, 50 and 150 mM on the replication fork; GFP imaging without oxygen scavenger; conditions: protein: recombinant; tags: N-terminal FLAG and GFP; chain copies: 2; label: Cy3 and Cy5 FRET pair; 5' biotin on leading parent; four-strand fork 1:3 2:4 3:4; heterologous distal arm ends
[3] = biological target: T1, f:GFP-WRN (Werner syndrome protein); assay: single-molecule TIRF GFP photobleaching; no ATP; tetramer (binomial n=4); Binding buffer, pH and temperature not in the material; 24 nM GFP-WRN in the forked-DNA unwinding assay (1 nM RPA); NaCl tested at 15, 50 and 150 mM on the replication fork; GFP imaging without oxygen scavenger; conditions: protein: recombinant; tags: N-terminal FLAG and GFP; chain copies: 2; label: Cy3 and Cy5 FRET pair; 5' biotin on leading parent; four-strand fork 1:3 2:4 3:4; 11-nt leading gap, 2-nt lagging gap; heterologous bases near junction

T1 sequence (Q14191 whole entry): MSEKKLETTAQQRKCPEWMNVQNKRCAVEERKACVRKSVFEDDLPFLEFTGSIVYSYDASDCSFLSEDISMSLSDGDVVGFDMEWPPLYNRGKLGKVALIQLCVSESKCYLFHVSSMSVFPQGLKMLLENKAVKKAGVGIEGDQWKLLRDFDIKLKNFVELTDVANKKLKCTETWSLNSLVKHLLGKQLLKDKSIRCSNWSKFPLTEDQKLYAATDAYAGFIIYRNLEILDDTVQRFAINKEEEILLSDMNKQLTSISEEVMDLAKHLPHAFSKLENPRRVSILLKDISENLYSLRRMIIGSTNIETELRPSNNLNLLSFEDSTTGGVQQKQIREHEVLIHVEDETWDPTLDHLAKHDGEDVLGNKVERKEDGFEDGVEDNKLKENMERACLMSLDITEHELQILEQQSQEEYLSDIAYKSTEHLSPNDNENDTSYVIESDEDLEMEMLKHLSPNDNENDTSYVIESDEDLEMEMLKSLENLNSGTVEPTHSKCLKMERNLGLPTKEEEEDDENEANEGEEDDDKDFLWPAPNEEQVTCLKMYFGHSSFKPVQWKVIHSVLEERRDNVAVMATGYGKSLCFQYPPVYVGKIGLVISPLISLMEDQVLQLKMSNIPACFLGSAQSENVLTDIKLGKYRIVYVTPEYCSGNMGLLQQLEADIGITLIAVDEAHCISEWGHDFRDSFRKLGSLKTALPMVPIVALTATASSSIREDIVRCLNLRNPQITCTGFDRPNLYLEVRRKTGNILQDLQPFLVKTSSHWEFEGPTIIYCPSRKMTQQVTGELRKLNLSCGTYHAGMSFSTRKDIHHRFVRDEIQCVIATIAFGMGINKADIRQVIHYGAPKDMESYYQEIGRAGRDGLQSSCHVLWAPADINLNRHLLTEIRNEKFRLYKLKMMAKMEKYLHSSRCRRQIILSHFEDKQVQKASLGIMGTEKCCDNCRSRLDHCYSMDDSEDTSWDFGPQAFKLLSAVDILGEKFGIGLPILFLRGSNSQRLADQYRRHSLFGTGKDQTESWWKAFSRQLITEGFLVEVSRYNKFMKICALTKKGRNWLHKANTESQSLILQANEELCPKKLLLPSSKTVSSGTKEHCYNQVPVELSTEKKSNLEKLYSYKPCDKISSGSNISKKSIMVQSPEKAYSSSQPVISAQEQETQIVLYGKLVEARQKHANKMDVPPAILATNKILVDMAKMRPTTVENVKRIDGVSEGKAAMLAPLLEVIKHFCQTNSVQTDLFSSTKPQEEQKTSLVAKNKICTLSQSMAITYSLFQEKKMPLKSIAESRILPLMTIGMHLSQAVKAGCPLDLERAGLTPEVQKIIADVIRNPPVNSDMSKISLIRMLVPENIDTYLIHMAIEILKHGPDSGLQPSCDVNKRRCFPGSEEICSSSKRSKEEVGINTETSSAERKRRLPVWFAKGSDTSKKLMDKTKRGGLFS

B1: Forked DNA (Figure 1A) (structured_DNA)
DNA 1: GAGAAGCACGCTGCCGAATTCTACCAGTGCCTTGCTAGGACATGTTTGCCTTTTTTTTTTTTTTTTTTTTTTTTTTTTTT
DNA 2: TTTTTTTTTTTTTTTTTTTTTTTTGGCAAACATGTCCTAGCAAGGCACTGGTAGAATTCGGCAGCGTGCTTCTC
modifications: amino C6 dT at dye sites
binding result [1]: binds

B2: Replication fork with 15 bp non-homologous region (Figure 3D) (structured_DNA)
DNA 1: TCGACAGGTCATGGCCGTACATGATATCCTCGAGCGGTCCTGTTGC
DNA 2: TCAGAGTGTGCAACAGGACCGCTCGAGGATATCATGTACGATAGCTTGGCCGCAT
DNA 3: TGTTAACCCTAACCCTAAGAATTCGGCTTAAGTGAGTGTGCAACAGGACCGCTCGAGGATATCATGTACGGCCATGACCTGTCGA
DNA 4: ATGCGGCCAAGCTATCGTACATGATATCCTCGAGCGGTCCTGTTGCACACTCTGAATAGCCGAATTCTTAGGGTTAGGGTTAACA
modifications: amino C6 dT at dye sites of the daughter strands
binding result [2]: binds

B3: Model replication fork (Figure 1B) (structured_DNA)
DNA 1: TCGACAGGTCATGGCCGTACATGATATCCTCGAGCGGTCCTGTTGCAACTTA
DNA 2: TCAGAGTGTTAAGTTGCAACAGGACCGCTCGAGGATATCATGTACGGCCATGACCTGTCG
DNA 3: TGTTAACCCTAACCCTAAGAATTCGGCTTAAGTGAGTGTTAAGTTGCAACAGGACCGCTCGAGGATATCATGTACGGCCATGACCTGTCGA
DNA 4: CGACAGGTCATGGCCGTACATGATATCCTCGAGCGGTCCTGTTGCAACTTAACACTCTGAATAGCCGAATTCTTAGGGTTAGGGTTAACA
modifications: amino C6 dT at dye sites of the daughter strands
binding result [3]: binds
